In patent US20130150294A1:

Experiments:
EYFP-rat α1 (rat) = EYFP-rat α1 (rat) (UniProt P06685); experiment: FRET by acceptor photobleaching, 16 LLC-PK1 cells in six experiments
[1] = target: EYFP-rat α1 mutant (D371E) (rat) (UniProt P06685); experiment: FRET by acceptor photobleaching, 20 TCN23-19 cells in three experiments

Substance: Src-ECFP
- FRET efficiency (EYFP-rat α1 (rat)): 8.1 to 18.8
- FRET efficiency (mean) (EYFP-rat α1 (rat)): 13.2
- FRET efficiency [1]: 10.4 to 15.6
- FRET efficiency (mean) [1]: 13.2
